Experimental data published in patent US20210252145A1 (CELLASTER, published 2021).

How the values were obtained:
[1] = molecular target: T1, FERM of EPB41L5 (N-terminal FERM domain construct, Flag-tagged) (human, UniProt Q9HCM4 43-327); experiment: Western blot of transfected 293T cells
T1 construct: the real construct is only its N-terminal FERM domain; not shown: Flag tag from vector pSG5-KF2M1-Flag

[2] = molecular target: T2, Δ619-624 of EPB41L5 (Flag-tagged deletion construct) (human, UniProt Q9HCM4 1-733); experiment: immunofluorescent staining of MKN28 cells co-transfected with EPB41L5 siRNA and construct
T2 construct: also called A619-624; not shown: Flag tag from vector pSG5-KF2M1-Flag
T2 sequence (Q9HCM4 other isoform, or with tags, fused parts or gaps mutant): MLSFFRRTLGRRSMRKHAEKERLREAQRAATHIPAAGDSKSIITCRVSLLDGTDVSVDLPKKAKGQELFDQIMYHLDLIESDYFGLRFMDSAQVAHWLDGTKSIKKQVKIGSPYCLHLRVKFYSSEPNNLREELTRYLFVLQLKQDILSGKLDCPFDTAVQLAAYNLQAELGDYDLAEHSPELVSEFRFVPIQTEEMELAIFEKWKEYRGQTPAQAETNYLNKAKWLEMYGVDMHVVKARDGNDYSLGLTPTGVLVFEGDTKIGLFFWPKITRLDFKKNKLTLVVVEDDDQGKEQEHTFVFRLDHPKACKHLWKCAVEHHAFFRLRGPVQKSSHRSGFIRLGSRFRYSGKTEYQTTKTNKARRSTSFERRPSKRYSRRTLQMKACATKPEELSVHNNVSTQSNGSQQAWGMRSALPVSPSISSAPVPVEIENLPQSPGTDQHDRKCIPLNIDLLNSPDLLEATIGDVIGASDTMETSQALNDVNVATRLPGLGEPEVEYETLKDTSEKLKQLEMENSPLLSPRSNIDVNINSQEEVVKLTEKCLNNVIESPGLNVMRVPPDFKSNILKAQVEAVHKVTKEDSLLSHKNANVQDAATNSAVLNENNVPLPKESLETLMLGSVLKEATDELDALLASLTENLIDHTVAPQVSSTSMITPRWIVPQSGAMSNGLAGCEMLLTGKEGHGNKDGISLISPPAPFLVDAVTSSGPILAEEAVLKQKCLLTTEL
Protocol: At this time, the immunofluorescent staining was performed using anti-EPB41L5 mAb and anti-Flag antibodies. Green represents EPB41L5, red represents Flag tag, blue represents Hochest, and scale bars represent 20 μm.
Considering the characteristics of nonpermeabilized immunofluorescent staining, in order to inhibit expression of endogenous EPB41L5, cells were co-transfected with EPB41L5 siRNA and any one plasmid selected from among FL (full length) of EPB41L5, FERM of EPB41L5, C-terminus of EPB41L5 and Δ619-624 of EPB41L5. Then, expression of exogenous EPB41L5 was analyzed using anti-Flag antibody. EPB41L5 expression was detected in […] transfected with FL and C-terminal constructs and in MKN28 cells […] with A619-624 (FIG. 6H).

T1 sequence (Q9HCM4 43-327): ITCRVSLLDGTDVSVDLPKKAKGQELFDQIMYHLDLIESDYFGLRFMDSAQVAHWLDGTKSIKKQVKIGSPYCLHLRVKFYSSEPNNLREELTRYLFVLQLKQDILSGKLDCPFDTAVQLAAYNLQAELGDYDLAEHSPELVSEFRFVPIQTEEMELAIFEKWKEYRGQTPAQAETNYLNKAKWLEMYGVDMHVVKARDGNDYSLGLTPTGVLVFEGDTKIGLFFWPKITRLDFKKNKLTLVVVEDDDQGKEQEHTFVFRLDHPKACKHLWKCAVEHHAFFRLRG

- binding result [1]: no binding
- binding result [2]: no binding
B1: anti-EPB41L5 monoclonal antibody (antibody, V domains shown)
VH: QVQLKESGTVLARPGASVKMSCKASGYTFTSYWMHWVKQRPGQGLEWIGAIYPGNSDTSYNQKFKDKAKLTAVTSTSTAYMELSSLTDEASAVYYCTRGGKLPFAMDYWGQGTSVTVSS
VL: DVLMTQTPLSLPVSLGDQASMSCRSSQSLVHSNGNTYLHWYLQKPGQSPKLLIYKVSNRFSGVPDRFSGSGSGTDFTLKISRVEAEDLGVYFCSQSTHVPWTFGGGTKLEIK
notes: also called anti-EPB41L5 mAb; EPB41L5 mAb
